The EC50 is the concentration that produces a half-maximal response. A lower EC50 goes with an effect from little substance.

The assay deals with CRMP1 (human, UniProt Q14194). The assay can be described thus: ELISA. Background: ELISA stands for enzyme-linked immunosorbent assay.

B1: NI-504.3E7 (antibody, V domains shown)
VH: EVQLVETGGGFVQPGGSLQLSCAVSGFPYSGTSFHWVRQVSGKGLEWIGRIRSKSDNYETSYTESLKGRFIVSRDDSKNMVRLHLYSLRTEDTALYYCTTGIIVVDTSYLDHWGRGTLVTVSS
VL: SYELTQPPSASVSPGQTARITCSGAALPKKYAYWYQLKSGQAPVLVIYEDTKRPSGIPERFSGSSSGTLATLTINGALVEDEADYYCYSTDSSGDVWVFGGGTKLTVL
Take B1: the EC50 stood at 69 nM.

These data come from patent US20260356928 (published 2026).
